What all share (conditions): remark: other sources report otherwise
Experiment [1] has as its target recombinant soluble homotrimeric HA of A/Hong Kong/2108/03 (H9N2) (Influenza A virus A/HK/2108/2003(H9N2)). The experiment in a line: HA microarray, BCC supernatant.
Experiment [2] concerns the target recombinant soluble homotrimeric HA of A/Solomon Islands/3/06 (H1N1) (Influenza A virus A/Solomon Islands/3/2006(H1N1)). The experiment in a line: HA microarray, BCC supernatant.
In experiment [3] the target is recombinant soluble homotrimeric HA of A/Anhui/1/05 (H5N1) (Influenza A virus A/Anhui/1/2005(H5N1)). Briefly: HA microarray, BCC supernatant.
The target in experiment [4] is recombinant soluble homotrimeric HA of A/northern shoveler/California/HKWF115/07 (H6) (Influenza A virus A/northern shoveler/California/HKWF115/2007(H6N1)). The experiment in a line: HA microarray, BCC supernatant.
Experiment [5] concerns the target recombinant soluble homotrimeric HA of A/California/4/09 (H1N1) (Influenza A virus A/California/04/2009(H1N1)). Briefly: HA microarray, BCC supernatant.
In experiment [6] the target is recombinant soluble homotrimeric HA of A/Vietnam/1203/04 (H5N1) (Influenza A virus A/VietNam/1203/2004(H5N1)). Briefly: HA microarray, BCC supernatant.
Experiment [7] addresses recombinant soluble homotrimeric HA of A/Japan/305/57 (H2N2) (Influenza A virus A/Japan/305/1957(H2N2)). The experiment in a line: HA microarray, BCC supernatant.
Experiment [8] has as its target recombinant soluble homotrimeric HA of A/duck/Yangzhou/02/05 (H8N4) (Influenza A virus A/duck/Yangzhou/02/2005(H8N4)). Briefly: HA microarray, BCC supernatant.
For experiment [9], the target named is recombinant soluble homotrimeric HA of A/chicken/Vietnam/NCVD-016/08 (H5N1) (Influenza A virus A/chicken/Vietnam/NCVD-016/2008(H5N1)). The experiment in a line: HA microarray, BCC supernatant.
Experiment [10] addresses recombinant soluble homotrimeric HA of A/Indonesia/5/05 (H5N1) (Influenza A virus A/Indonesia/5/2005(H5N1)). Briefly: HA microarray, BCC supernatant.
The target of experiment [11] is recombinant soluble homotrimeric HA of A/Wisconsin/67/05 (H3N2) (Influenza A virus A/Wisconsin/67/2005(H3N2)). The experiment in a line: HA microarray, BCC supernatant.
The target of experiment [12] is recombinant homotrimeric HA A/Vietnam/1203/04 H5N1 (Influenza A virus A/VietNam/1203/2004(H5N1)). The experiment in a line: protein microarray, purified IgG, trimeric HA.
The target in experiment [13] is recombinant homotrimeric HA A/northern shoveler/California/HKWF115/07 H6N4 (Influenza A virus A/northern shoveler/California/HKWF115/2007(H6N1)). Briefly: protein microarray, purified IgG, trimeric HA.
The target in experiment [14] is recombinant homotrimeric HA A/chicken/Vietnam/NCVD-016/08 H5N1 (Influenza A virus A/chicken/Vietnam/NCVD-016/2008(H5N1)). The experiment in a line: protein microarray, purified IgG, trimeric HA.
The target of experiment [15] is recombinant homotrimeric HA A/Hong Kong/2108/03 H9N2 (Influenza A virus A/HK/2108/2003(H9N2)). Briefly: protein microarray, purified IgG, trimeric HA.
Experiment [16] concerns the target recombinant homotrimeric HA A/Netherlands/219/03 H7N7 (Influenza A virus A/Netherlands/219/03(H7N7)). The experiment in a line: protein microarray, purified IgG, trimeric HA.
In experiment [17] the target is recombinant homotrimeric HA A/Hong Kong/156/97 H5N1 (Influenza A virus A/Hong Kong/156/97 (H5N1)). The experiment in a line: protein microarray, purified IgG, trimeric HA.
Experiment [18] addresses recombinant homotrimeric HA A/Indonesia/5/05 H5N1 (Influenza A virus A/Indonesia/5/2005(H5N1)). Briefly: protein microarray, purified IgG, trimeric HA.
For experiment [19], the target named is recombinant homotrimeric HA A/Japan/305/57 H2N2 (Influenza A virus A/Japan/305/1957(H2N2)). The experiment in a line: protein microarray, purified IgG, trimeric HA.
Experiment [20] deals with recombinant homotrimeric HA A/California/4/09 H1N1 (Influenza A virus A/California/04/2009(H1N1)). The experiment in a line: protein microarray, purified IgG, trimeric HA.
Experiment [21] deals with recombinant homotrimeric HA A/South Carolina/1/18 H1N1 (Influenza A virus A/South Carolina/1/18 (H1N1)). The experiment in a line: protein microarray, purified IgG, trimeric HA.
Experiment [22] addresses recombinant homotrimeric HA A/Hong Kong/1073/99 H9N2 (Influenza A virus A/Hong Kong/1073/99 (H9N2)). Briefly: protein microarray, purified IgG, trimeric HA.
The target in experiment [23] is recombinant homotrimeric HA A/Egypt/3300-NAMRU3/08 H5N1 (Influenza A virus A/Egypt/3300-NAMRU3/2008(H5N1)). The experiment in a line: protein microarray, purified IgG, trimeric HA.
Experiment [24] concerns the target recombinant homotrimeric HA A/Solomon Islands/3/06 H1N1 (Influenza A virus A/Solomon Islands/3/2006(H1N1)). Briefly: protein microarray, purified IgG, trimeric HA.
The target of experiment [25] is recombinant soluble homotrimeric HA of A/Netherlands/219/03 (H7N7) (Influenza A virus A/Netherlands/219/03(H7N7)). Briefly: HA microarray, BCC supernatant.
Experiment [26] has as its target recombinant homotrimeric HA A/Anhui/1/05 H5N1 (Influenza A virus A/Anhui/1/2005(H5N1)). The experiment in a line: protein microarray, purified IgG, trimeric HA.
Experiment [27] concerns the target recombinant homotrimeric HA A/Wisconsin/67/05 H3N2 (Influenza A virus A/Wisconsin/67/2005(H3N2)). Briefly: protein microarray, purified IgG, trimeric HA.

Consider four molecules from patent publication US20150086555A1.

B1: TCN-538 (3206_O17) (antibody, V domains shown)
VH: QITLKESGPTLVKPTQTLTLTCVFSGFSLSITGVRVGWIRQPPGKALEWLALISWDDEKHYSPSLQSRLTITKDTSKNQVVLTMTNLDPVDTATYYCARSTDRGHVLRYFGWMLPGDAFDVWGQGTMVTVSS
VL: DIVMTQSPDFLPVSLGERATINCKSSQRVLYSSNNKNYLAWYQLKPGQPPKLIIYWASTRESGVPDRFSGSGSGTEFTLTISSLQAEDVAVYYCQQYYSRPYTFGQGTKLEIK
For B1, the Trimeric HA Binding: RLU in experiment [1] worked out at 109 RLU; in experiment [2] it was 33200 RLU; in experiment [3], 689 RLU; in [4] it was 17400 RLU; in [5], 13800 RLU; in experiment [6] it was 60 RLU. Moreover, the Trimeric HA Binding: RLU in experiment [7] is 43000 RLU; in experiment [8] it was 6120 RLU; in experiment [9], 37300 RLU; in experiment [10], 26400 RLU; in experiment [11], 6900 RLU; in experiment [12] it was 14000 RLU. The Trimeric HA Binding: RLU in experiment [13] was 11400 RLU; in experiment [14], 1060 RLU; in [15] it was 172 RLU; in experiment [16], 446 RLU; in experiment [17], 7080 RLU; in experiment [18], 7450 RLU. Also, the Trimeric HA Binding: RLU in experiment [19] worked out at 20500 RLU; in experiment [20], 4810 RLU; in [21], 6770 RLU; in experiment [22], 1270 RLU; in experiment [23] it was 7290 RLU; in experiment [24] it was 9740 RLU.

B2: TCN-546 (5089_L08) (antibody, V domains shown)
VH: QVQLQQWGAGLLKPSETLSLTCGVYGGSLSDYYWSWIRQPPGKGLEWIGEINHSGGTNYNPSLKRRVTISVDTSKKQFSLKMNSVTAADTAVYYCARGTDPDTEVYCRAGNCAAFDFWGQGTLVTVSS
VL: EIVLTQSPGTLSLSPGERATLSCRASHFVIGRAVAWYQQKPGQAPRLLIYGASSRATGIPDRFSGSGSGTDFTLTISRLETEDFAVFYCQHYGSSPRYAFGQGTKLEIK
In the case of B2, the Trimeric HA Binding: RLU in experiment [1] amounted to 13000 RLU; in experiment [3], 2040 RLU; in experiment [25], 1450 RLU; in experiment [5], 350 RLU; in [6], 349 RLU; in [7] it was 520 RLU. For the same molecule, the Trimeric HA Binding: RLU in [8] worked out at 487 RLU; in experiment [9], 421 RLU; in experiment [10], 18400 RLU; in experiment [11], 30200 RLU; in [12], 1200 RLU; in experiment [26], 21400 RLU. The Trimeric HA Binding: RLU amounted to 207 RLU in experiment [14]; 307 RLU in experiment [15]; 386 RLU in [16]; 25500 RLU in experiment [27]; 890 RLU in [17]; 147 RLU in [18]. The Trimeric HA Binding: RLU in experiment [19] came out at 503 RLU; in experiment [20], 277 RLU; in experiment [21], 88 RLU; in experiment [22] it was 505 RLU; in [23] it was 11200 RLU.

B3: TCN-522 (3212_I12) (antibody, V domains shown)
VH: QVQLQQWGAGLLKPSETLSLTCTVSGGSLTDYSWNWIRQPPGKGLEWIGDTLHNGYTNYNPSLRGRVSISIDTSKNQVSLRLTSVTAADTALYYCARGSGGYGGFDYFGKLRTWDFWGQGTLVTVSS
VL: DIQLTQSPSSLSASVGDRVTITCRASQGIRNDLGWYQQKPGNAPKRLIFGASSLQSGVPSRFSGSGSGTEFTLTISSLQPEDFATYYCLQHNSYPYTFGQGTKLEIK
As to B3, the Trimeric HA Binding: RLU is 639 RLU in [1]; 38900 RLU in [2]; 5020 RLU in experiment [5]; 145 RLU in experiment [6]; 989 RLU in experiment [7]; 502 RLU in experiment [8]. Also, the Trimeric HA Binding: RLU is 67 RLU in [10]; 11300 RLU in [12]; 5260 RLU in experiment [26]; 3180 RLU in experiment [13]; 1960 RLU in experiment [14]; 108 RLU in experiment [27]. Also, the Trimeric HA Binding: RLU in experiment [17] was 14800 RLU; in [18], 12500 RLU; in experiment [19], 9740 RLU; in [20], 13900 RLU; in experiment [21], 4500 RLU; in [22], 5050 RLU. For the same molecule, the figures for the Trimeric HA Binding: RLU in experiment [23] and in experiment [24] were 11300 RLU and 19100 RLU, respectively.

B4: TCN-523 (5248_A17) (antibody, V domains shown)
VH: QVQLVQSGAEVKKPGSSVKVSCKASGGSFSNYAFSWVRQAPGQGLEWMGGTIPLLGTTNYAQKFQGRVTISADQFTSTAYMELGSLRSEDTAVYYCTRRKMTTAFDSWGQGTLVTVSS
VL: QPVLTQPPSASASLGASVTLTCTLSSAYSNYKVDWYQQRPGKGPRFVMRVGTGGIVGSKGDGIPDRFSVLGSGLNRYLTIKNIQEEDESDYHCGADHGSGSNFVSPYVFGGGTKLTVL
For the molecule B4, the Trimeric HA Binding: RLU came out at 189 RLU in experiment [1]; 37900 RLU in experiment [2]; 5700 RLU in [3]; 2340 RLU in experiment [25]; 46900 RLU in experiment [4]; 34700 RLU in experiment [5]. In addition, the Trimeric HA Binding: RLU in experiment [6] was 3380 RLU; in experiment [7], 5110 RLU; in experiment [9], 48900 RLU; in experiment [10], 45800 RLU; in experiment [12], 20000 RLU; in experiment [26], 7240 RLU. Further, the Trimeric HA Binding: RLU in experiment [13] is 3370 RLU; in [14], 4960 RLU; in [15], 163 RLU; in experiment [17], 5810 RLU; in [18], 16900 RLU; in experiment [19] it was 15300 RLU. In addition, the Trimeric HA Binding: RLU in experiment [20] was 19500 RLU; in experiment [21] it was 9720 RLU; in experiment [22], 2130 RLU; in [23], 21300 RLU; in [24] it was 5130 RLU.
